Experimental data: patent US20200148787A1 (KYMAB, published 2020)

Experiments:
Human factor IX (FIX) = target: T1, Human factor IX (FIX) (human, UniProt P00740 47-461, 12 glutamic acid residues in the GLA domain post-translationally gamma-carboxylated (general description)); experiment: SPR Biacore 8K, IgG captured on anti-human IgG Fc, FIX analyte, 25 C, 1:1 fit
T1 construct: mature; Bought reagent, used as SPR analyte
Procedure: An anti-human IgG Fc antibody was immobilised on CM4 chip (GE Healthcare catalog number BR100534) according to manufacturer's instructions. Amine coupling kit (BioRad) was used to activate the surface of the chip. […] The immobilisation run was performed at 25° C. using HBS-EP (10 mM HEPES pH 7.4, 150 mM NaCl, 3 mM EDTA, 0.05% Polysorbate 20 pH 7.6) as immobilisation running buffer.
Purified monospecific antibodies (referred to as ligand) from Example 13 were captured on the anti-human IgG Fc CM4 surface at approximately 2 μg/ml. The ligands were injected for 60 sec at 10 μl/min in all the active channels of all 8 flow channels. The run was performed at 25° C. using neutral pH (pH 7.4) HBS-P 1× (0.01 M HEPES pH 7.4, 0.15 M NaCl, 0.05% Polysorbate 20 pH 7.6)+CaCl₂) 2.5 mM as running buffer. Human factor IX (FIX) (Enzyme Research Laboratories cat n. HFIX 47064) was reconstituted at 1 mg/ml (MW ˜55 KDa) in the running buffer and used as analyte. […] Three injections of 10 mM glycine pH 1.5 for 60 sec at 10 μl/min were used for the regeneration phase.
The association and dissociation data of the interaction were fitted using biomolecular reaction model (1:1 Langmuir model). The values for association rate constant (kₒₙ), dissociation rate constant (koff) and dissociation constant (KD) were calculated from the binding data by BIAevaluation software.

Human Factor X (FX) = Human Factor X (FX) (human, UniProt P00742 41-179; P00742 183-488, limits assumed); experiment: SPR Biacore 8K, IgG captured on anti-human IgG Fc, FX analyte, 25 C, 1:1 fit
Sequence of Human Factor X (FX) (P00742 41-179 limits assumed, form in doubt, chain 1 of 2): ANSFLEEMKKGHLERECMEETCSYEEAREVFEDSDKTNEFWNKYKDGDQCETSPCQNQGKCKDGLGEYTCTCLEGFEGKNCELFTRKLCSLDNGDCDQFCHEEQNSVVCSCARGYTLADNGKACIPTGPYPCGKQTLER
Sequence of Human Factor X (FX) (P00742 183-488 limits assumed, form in doubt, chain 2 of 2): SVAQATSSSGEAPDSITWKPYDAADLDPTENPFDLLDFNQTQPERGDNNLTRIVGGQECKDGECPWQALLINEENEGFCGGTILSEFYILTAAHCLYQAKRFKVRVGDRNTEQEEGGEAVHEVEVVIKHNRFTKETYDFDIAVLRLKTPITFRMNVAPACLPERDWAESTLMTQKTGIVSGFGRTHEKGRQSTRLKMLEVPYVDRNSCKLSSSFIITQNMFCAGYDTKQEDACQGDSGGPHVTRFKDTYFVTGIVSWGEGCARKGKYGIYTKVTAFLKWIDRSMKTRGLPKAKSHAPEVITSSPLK
Procedure: Amine coupling kit (BioRad) was used to activate the surface of the chip. […] The immobilisation run was performed at 25° C. using HBS-EP (10 mM HEPES pH 7.4, 150 mM NaCl, 3 mM EDTA, 0.05% Polysorbate 20 pH 7.6) as immobilisation running buffer.
The run was performed at 25° C. using neutral pH (pH 7.4) HBS-P 1× (0.01 M HEPES pH 7.4, 0.15 M NaCl, 0.05% Polysorbate 20 pH 7.6)+CaCl₂) 2.5 mM as running buffer.

B1: N225H_IgG4PE + N128L_IgL (antibody, V domains shown)
VH: EVQLVESGGGFVQPGGSLRLSCAVSGFTFNSYWMSWVRQAPGKGLEWVANINQDGSEKFYVASVKGRFTISRDNAKKSVYLQMNSLRAEDTAVYYCAREGYSSSSYYGMDVWGQGTTVTVSS
VL: SYVLTQPPSVSVAPGETARITCGGDNIGRKSVYWYQQKSGQAPVLVIYYDSDRPSGIPERFSGSNSGNTATLTISRVEAGDEADYYCQVWDGSSDHWVFGGGTKLTVLG
notes: Monospecific IgG4PE with lambda light chain
Kd (Human factor IX (FIX)): 428 nM | koff (Human factor IX (FIX)): 0.031 s⁻¹ | kon (Human factor IX (FIX)): 72300 M⁻¹ s⁻¹

B2: T25H_IgG4PE + T25L_IgK (antibody, V domains shown)
VH: QVQLQESGPGLVKPSETLSLTCTVSGGSISSGIYYWSWIRQHPGKGLEWIGYINNSGNTYYNPSLKGRVNISVDTSKKQFSLKLSSVTDADTAVYYCARGGSGDYWGQGTLVTVSS
VL: EIVLTQSPATLSLSPGERATLSCRTSQSINNYLAWFQQKPGQAPRLLIYDASNRAPGIPARFSGSGSGTDFTLTISSLEPEDFVVYFCQQRNNWPPTFGQGTKVEIKR
notes: Monospecific IgG4PE, kappa; Kappa junction as noted for T14
Kd (Human Factor X (FX)): 3.57 nM
